From US8729030B2 (Affymax, Inc., priority 2003, dated 2014)
pEC50: −log10 of the molar value. Bridges are numbered along the chain shown (N, C = ends). Where no end group is shown, it is not given here. [ ]: non-standard residue; d: D form. 1Nal = N[C@@H](Cc1cccc2ccccc12)C(=O)O; Sar = CNCC(=O)O

Molecular target: T1, human EPO-R (Homo sapiens, UniProt P19235)
T1 construct: expressed in transfected cells; host or cells: murine pre-B-cell line Baf3 (BaF3/Gal4/Elk/EPOR)
T1 sequence (P19235 25-508): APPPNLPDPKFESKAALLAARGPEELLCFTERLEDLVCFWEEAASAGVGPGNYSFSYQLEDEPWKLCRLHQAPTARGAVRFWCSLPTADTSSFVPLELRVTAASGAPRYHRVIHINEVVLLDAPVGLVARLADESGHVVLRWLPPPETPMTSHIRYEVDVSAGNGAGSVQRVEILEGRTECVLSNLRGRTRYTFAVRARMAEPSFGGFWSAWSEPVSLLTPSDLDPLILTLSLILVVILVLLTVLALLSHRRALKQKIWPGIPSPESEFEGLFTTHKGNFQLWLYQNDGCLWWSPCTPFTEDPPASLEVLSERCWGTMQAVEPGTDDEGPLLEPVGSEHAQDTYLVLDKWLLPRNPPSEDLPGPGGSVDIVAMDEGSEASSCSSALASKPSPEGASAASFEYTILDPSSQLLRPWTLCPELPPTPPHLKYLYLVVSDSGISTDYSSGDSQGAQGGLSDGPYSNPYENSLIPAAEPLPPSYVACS
Experiment: Proliferation assay (BaF3/Gal4/Elk/EPOR cells, MTT)
Assay type: cell-based
Settings: Table 6, 48 h
Description: This assay is based upon a murine pre-B-cell line, Baf3, transfected to express human EPO-R. Proliferation of the resulting cell line, BaF3/Gal4/Elk/EPOR, is dependent on EPO-R activation. The degree of cell proliferation is quantitated using MTT, where the signal in the MTT assay is proportional to the number of viable cells.
The BaF3/Gal4/Elk/EPOR cells are cultured in spinner flasks in DMEM/F12 medium (Gibco) supplemented with 10% FBS (Hyclone) and 2% WEHI-3 supernatant (ATCC #TIB-68). Cultured cells are starved overnight, in a spinner flask at a cell density of 1×10^6 cells/ml, in DMEM/F12 medium supplemented with 10% FBS and 0.1% WEHI-3 supernatant. […] Absorbance of each well at a wavelength of 595 nm is then measured by spectrophotometry. Plots of the absorbance readings versus test peptide concentration are constructed and the EC50 calculated using Graph Pad software. The concentration of test peptide that results in a half-maximal absorbance is recorded as the EC50[See Table 2: Proliferation EC50].
The BaF3/Gal4/Elk/EPOR cells are cultured in spinner flasks in DMEM/F12 medium (Gibco) supplemented with 10% FBS (Hyclone) and 2% WEHI-3 supernatant (ATCC #TIB-68). […] Absorbance of each well at a wavelength of 595 nm is then measured by spectrophotometry. Plots of the absorbance readings versus test peptide concentration are constructed and the EC50 calculated using Graph Pad software. […]

pEC50: 9.78
Substance: peptide dimer of monomers (AcG)GLYACHMGPIT(1-nal)VCQPLR(MeG)K (SEQ ID NO: 2) (Ac-GGLYACHMGPIT[1Nal]VCQPLR[Sar]K; disulfide 6-15 (inferred); not fully specified (residue 1); printed as (AcG)GLYACHMGPIT(1-nal)VCQPLR(MeG)K; also: homodimer, dimer linkage not given here) [Peptide I]
